Results as given in the nanobody polyreactivity screen of Harvey et al. (2022).

Experiment: yeast display, Sf9 membrane polyspecificity reagent, FACS + sequencing; frameworks hold sequencing errors
Method in brief: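 Galactose-induced (36–48 hours) yeast carrying a synthetic nanobody display library were exposed to 10% biotinylated, detergent-solubilized Sf9 membrane reagent at 4 °C for 1 hour. FACS followed streptavidin microbead enrichment, using low and high (top ~1%) gates for expression (anti-HA) and reagent binding (streptavidin). Colony PCR, MiSeq 2 × 250 sequencing and CDR-length filtering followed. Labels for polyreactivity reflect the gate of origin.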

Sequence	polyreactivity (PSR sort gate)
QVQLVESGGGLVQAGGSLRLSCAASGSIFSYNAMGGYRQAPGKERELVAGITSGASTNYADSVKGRFTISRDNAKNTVYLQMNSLKPEDTAVYYCNADDIFRPRDDLYDYWGQGTQVTVSS	low polyreactivity
QVQLVESGGGLVQAGGSLRLSCAASGSIFSYNAMGWYRQAPGKEREFVAAITSSGTRTYYADSVKGRFTISRDNAKNTVYLQMNSLKPEDTAVYYCAAKPSRYGIGFYWGQGTQVTVSS	high polyreactivity
QVQLVESGGGLVQAGGSLRLSCAASGSIFSYNAMGWYRQAPGKERELVAAISWSGGSTYYADSVKGRFTISRDNAKNTVYLQMNSLKPEDTAVYYCNAYRYRQSSSDKYGYWGQGTQVTVSS	high polyreactivity
QVQLVESGGGLVQAGGSLRLSCAASGSIFSYNAMGWYRQAPGKERELVAAITWSGGSTYYADSVKGRFTISRDNAKNTVYLQMNSLKPEDTAVYYCAAVYDDYSTSVGYSPEYDYWGQGTQVTESS	high polyreactivity
QVQLVESGGGLVQAGGSLRLSCAASGSIFSYNGMGWYRQAPGKERELVATISASSVTTYYADSVKGRFTFSRDNAMNTVYLQMNSLKPEDTAVYYCARDAYSVYYYVFLHWEYDYWGQGTQVTVSS	high polyreactivity
QVQLVESGGGLVQAGGSLRLSCAASGSIFSYYAMGWYRQAPAKERELVAAISQNACSTYYADSVKGRFTISRDNAKNTVYLQMNSLKPEDTAVYYCNAYSVYVRGEYWGQGTQVNVSS	high polyreactivity
QVQLVESGGGLVQAGGSLRLSCAASGSIFSYYAMGWYRQAPGKERELVAAITTSGGSTYYADSVKGRVTISRDNAKNTVYLQMNSLKPEDTAVYYCAAETAWYITTGYDYWGQGTQVTVSS	low polyreactivity
QVQLVESGGGLVQAGGSLRLSCAASGSIFSYYAMGWYRQAPGKERELVAAITVRGGSTYYADSVKGRFTISRDNAKNTVYFQMNSLKPEDTAVYYCAADWLDESFSYGPYYYWGQGTQVTVSS	low polyreactivity
QVQLVESGGGLVQAGGSLRLSCAASGSIFSYYAMGWYRQAPGKERELVATITSSGSTYADSVKGRFTISRDNAKNTVYLQMNSLKPEDTAVYYCNADSGYSEYWGVDVAYDYWGQGTQVTVSS	low polyreactivity
QVQLVESGGGLVQAGGSLRLSCAASGSIFSYYAMGWYRQAPGKERVLVAAIRRGGSTNYADSVKGRFTISRDNAKNTVYLQLNSLKPEDTAVYYCAASLGWRFYYWGQGTQVTVSS	high polyreactivity
QVQLVESGGGLVQAGGSLRLSCAASGSIFSYYDMGWYRQAPGKERELVAAIRWSGGITYADSVKGRFTISRDNAKNTVYLEMNSLKPEDTAVYYCAADQYYRSDYYYWGQGTQVTVSS	low polyreactivity
QVQLVESGGGLVQAGGSLRLSCAASGSIFSYYTIGWYRKAPGKERELVAAISFSGTSTYYADSVKGRFTISRDNDKNTVYLQMNSLKPEDTAVYFCAKRALYYPTYPKYDTYNRYYWGQGTQGTVSS	high polyreactivity
QVQLVESGGGLVQAGGSLRLSCAASGSIFSYYTMGWYRQAPGKERELVAAITKSGGSTYYADSVKGRFTISRDNAKNTVYLQMNSLKPEDTAVYYCAASYGGYPKGNYWGQGTQVTVSS	high polyreactivity
QVQLVESGGGLVQAGGSLRLSCAASGSIFTAYAMGWYRQAPGKEMELVAAITYNGGSTYYADSVKGRFTISRDNAKNTVYLQMNSLKPEDTAVYYCAARYWFYYDLYDYWGQGTQVTVSS	low polyreactivity
QVQLVESGGGLVQAGGSLRLSCAASGSIFTDNVMGWYRQAPGKERELVAAITYSAASTYYADSVKGRFTISRDNAKNTVYLQMNSLKPEDTAVYYCNARIIYRKWLFRSGTFNYWGQGTQVTVSS	low polyreactivity
QVQLVESGGGLVQAGGSLRLSCAASGSIFTDYAMGWYRQAPGKERELVAAITSSGGSTYYADSVKGRFTISRDNAKNTVYLQMNSLKPEDTAVYYCDADRITIYDYWGQGTQVTVSS	low polyreactivity
